From article PMC5855643

Assays:
[1] = molecular target: FcγRIIIa receptor, F158 (low affinity) variant (UniProt P08637)
[2] = molecular target: FcγRIIIa receptor, V158 (high affinity) variant

Row | EC50 of the ADCC reporter bioassay, Daudi target cells, F/F 158 variant effector cells [1] [ng/mL] | EC50 of the ADCC reporter bioassay, Wil2-S target cells, F/F 158 variant effector cells [1] [ng/mL] | EC50 of the ADCC reporter bioassay, Daudi target cells, V/V 158 variant effector cells [2] [ng/mL] | EC50 of the ADCC reporter bioassay, Wil2-S target cells, V/V 158 variant effector cells [2] [ng/mL] | Substance
1 | 22 | 18 | 12 | 15.7 | Rituxan^® (rituximab, innovator product) (antibody)
2 | 7 | 4.4 | 2.9 | 2.7 | reglycosylated plant-made rituximab (NbRTX^A2G2) (antibody)
